doi:10.1101/2021.02.27.433207

Legend:
[1] = tested on: ParA2 (Vibrio cholerae); test: EMSA
[2] = biological target: Vibrio cholerae chromosome 2 ParA2 (Vibrio cholerae); test: SEC-MALS

Substance: Cy3-62-bp DNA
- Kd [1]: 1000 nM

Substance: Vibrio cholerae chromosome 2 ParA2 (enzyme)
- stoichiometry N [2]: 2
